# Residue numbers refer to the chain shown, from its start. In names and notes the source's numbering stands. Several values for one entry are separate records, joined by “and”; a condition that tells them apart may be missing. Identical values can stand only once.
# T1: RIPK2^1−300 (human, UniProt O43353 1-300, labelled with the Monolith Protein labelling kit RED-NHS second generation (primary amines) for MST only)
# T1 chain: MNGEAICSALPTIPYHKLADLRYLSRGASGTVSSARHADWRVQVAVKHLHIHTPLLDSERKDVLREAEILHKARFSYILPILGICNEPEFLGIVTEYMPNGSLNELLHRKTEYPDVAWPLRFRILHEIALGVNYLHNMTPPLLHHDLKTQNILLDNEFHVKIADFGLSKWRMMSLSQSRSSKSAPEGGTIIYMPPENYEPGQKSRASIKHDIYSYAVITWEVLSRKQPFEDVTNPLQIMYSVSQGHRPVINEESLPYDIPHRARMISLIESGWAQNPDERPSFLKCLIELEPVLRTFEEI
# B1: RIPK2^1−317 (domain or fragment, human, UniProt O43353 1-317, looked up)
# chain: MNGEAICSALPTIPYHKLADLRYLSRGASGTVSSARHADWRVQVAVKHLHIHTPLLDSERKDVLREAEILHKARFSYILPILGICNEPEFLGIVTEYMPNGSLNELLHRKTEYPDVAWPLRFRILHEIALGVNYLHNMTPPLLHHDLKTQNILLDNEFHVKIADFGLSKWRMMSLSQSRSSKSAPEGGTIIYMPPENYEPGQKSRASIKHDIYSYAVITWEVLSRKQPFEDVTNPLQIMYSVSQGHRPVINEESLPYDIPHRARMISLIESGWAQNPDERPSFLKCLIELEPVLRTFEEITFLEAVIQLKKTKLQSV
# notes: Incubated with nucleotide (ATP or AMPPCP) and MgCl2 before XIAP BIR2 was added; ATP-MgCl2 is said to promote full phosphorylation; Antiparallel dimer in the complex; also called RIPK2 kinase; RIPK2 wt; source: sf21 insect cells (baculovirus), purified (amylose resin, TEV cleavage, anion exchange)
# B2: RIPK2^1−317 K209R (domain or fragment, human, UniProt O43353 1-317, looked up)
# chain: B1 chain with K209R
# notes: Incubated with 500 μM ATP and 5 mM MgCl2 before XIAP BIR2 was added; also called RIPK2–K209R (recombinant); source: sf21 insect cells (baculovirus), purified as RIPK2 wt
# B3: RIPK2^1−317 S282L (domain or fragment, human, UniProt O43353 1-317, looked up)
# chain: B1 chain with S282L
# notes: Incubated with 500 μM ATP and 5 mM MgCl2 before XIAP BIR2 was added; also called RIPK2–S282L (recombinant); source: sf21 insect cells (baculovirus), purified as RIPK2 wt
# B4: RIPK2^1−317 K209A (domain or fragment, human, UniProt O43353 1-317, looked up)
# chain: B1 chain with K209A
# notes: Incubated with 500 μM ATP and 5 mM MgCl2 before XIAP BIR2 was added; also called RIPK2–K209A (recombinant); source: sf21 insect cells (baculovirus), purified as RIPK2 wt
# B5: XIAP BIR2^93−240 (domain or fragment, human)
# chain: GPINGFYLENSATQSTNSGIQNGQYKVENYLGSRDHFALDRPSETHADYLLRTGQVVDISDTIYPRNPAMYSEEARLKSFQNWPDYAHLTPRELASAGLYYTGIGDQVQCFCCGGKLKNWEPCDRAWSEHRRHFPNCFFVLGRNLNIRSE
# notes: two additional residues after the P3C cleavage site; XIAP, human, residues 93-240; source: E. coli Rosetta 2, purified (glutathione sepharose, P3C cleavage, SEC); not shown: GST, N-terminal, cleaved
# B6: XIAP BIR2^93−263 (domain or fragment, human)
# chain: GPINGFYLENSATQSTNSGIQNGQYKVENYLGSRDHFALDRPSETHADYLLRTGQVVDISDTIYPRNPAMYSEEARLKSFQNWPDYAHLTPRELASAGLYYTGIGDQVQCFCCGGKLKNWEPCDRAWSEHRRHFPNCFFVLGRNLNIRSESDAVSSDRNFPNSTNLPRNPSMA
# notes: two additional residues after the P3C cleavage site; XIAP, human, residues 93-263; source: E. coli Rosetta 2, purified (glutathione sepharose, P3C cleavage, SEC); not shown: GST, N-terminal, cleaved
# B7: RIPK2^1−300 (domain or fragment, human, UniProt O43353 1-300, looked up)
# chain: T1 chain
# modifications: labelled with the Monolith Protein labelling kit RED-NHS second generation (primary amines) for MST only
# notes: RIPK2, human, kinase domain, residues 1-300; also called kinase domain of RIPK2 (residues 1–300); source: sf21 insect cells (baculovirus), purified (amylose resin, TEV cleavage, anion exchange)
# B8: XIAP BIR2^154–240 (domain or fragment, human, UniProt P98170 154-240, looked up)
# chain: YPRNPAMYSEEARLKSFQNWPDYAHLTPRELASAGLYYTGIGDQVQCFCCGGKLKNWEPCDRAWSEHRRHFPNCFFVLGRNLNIRSE
# notes: Plasmid pET49, a gift from Katrin Rittinger; also called short BIR2 construct; source: E. coli Rosetta 2, purified (glutathione sepharose, P3C cleavage, SEC); not shown: GST, N-terminal, cleaved
# B9: XIAP BIR2AG^154–240 (domain or fragment, human, UniProt P98170 154-240, looked up)
# chain: B8 chain with C49A, C60G
# notes: XIAP, human, BIR2 domain, residues 154-240 with the AG mutations C202A and C213G; Plasmid pET49, a gift from Katrin Rittinger; also called AG construct (short); source: E. coli Rosetta 2, purified (glutathione sepharose, P3C cleavage, SEC); not shown: GST, N-terminal, cleaved
# B10: XIAP BIR2^124−263 (domain or fragment, human)
# chain: GPRDHFALDRPSETHADYLLRTGQVVDISDTIYPRNPAMYSEEARLKSFQNWPDYAHLTPRELASAGLYYTGIGDQVQCFCCGGKLKNWEPCDRAWSEHRRHFPNCFFVLGRNLNIRSESDAVSSDRNFPNSTNLPRNPSMA
# notes: two additional residues after the P3C cleavage site; XIAP, human, residues 124-263; source: E. coli Rosetta 2, purified (glutathione sepharose, P3C cleavage, SEC); not shown: GST, N-terminal, cleaved
# B11: XIAP BIR2^124–240 (domain or fragment, human)
# chain: GPRDHFALDRPSETHADYLLRTGQVVDISDTIYPRNPAMYSEEARLKSFQNWPDYAHLTPRELASAGLYYTGIGDQVQCFCCGGKLKNWEPCDRAWSEHRRHFPNCFFVLGRNLNIRSE
# notes: two additional residues after the P3C cleavage site; XIAP, human, linker region (124-154) and BIR2 domain, residues 124-240; also called long BIR2 construct; source: E. coli Rosetta 2, purified (glutathione sepharose, P3C cleavage, SEC); not shown: GST, N-terminal, cleaved
# B12: XIAP BIR2AG^124–240 (domain or fragment, human)
# chain: B11 chain with C81A, C92G
# notes: two additional residues after the P3C cleavage site; XIAP, human, residues 124-240 with the AG mutations C202A and C213G; For NMR uniformly 15N- or 13C/15N-labelled (M9 medium); also called AG construct (long); ^15N-labeled XIAP BIR2; source: E. coli Rosetta 2, purified (glutathione sepharose, P3C cleavage, SEC); not shown: GST, N-terminal, cleaved
# Legend:
# [1] = biological target: the molecule itself; assay: native MS; complex fractions reapplied on Superdex 200 10/300 increase in 250 mM ammonium acetate with 1 mM DTT; concentration range of 10 μM
# [2] = biological target: the molecule itself; assay: SEC; RIPK2 1-317 wt or mutant with 500 μM ATP and 5 mM MgCl2 on ice, XIAP BIR2 154-240 added in excess (1:2), Superdex 200 3.2/300 increase in buffer C; fractions on SDS-PAGE
# RIPK2^1−300 [3] = biological target: B7; assay: MST; RIPK2 1-300 labelled with RED-NHS at 20 nM final, XIAP BIR2 constructs titrated from 1.2-2,500 nM; 20 mM Hepes pH 7.5, 150 mM NaCl, 2% glycerol, 0.05% Tween-20; 20°C; one-site binding model, triplicates; conditions: both partners purified
# RIPK2^1−300 [4] = biological target: T1, RIPK2^1−300; assay: MST
# RIPK2^1−317 [5] = biological target: B1; assay: native MS; complex fractions reapplied on Superdex 200 10/300 increase in 250 mM ammonium acetate with 1 mM DTT; concentration range of 10 μM; conditions: both partners purified
# RIPK2^1−317 [6] = biological target: B1; assay: cryo-EM structure; single-particle cryo-EM of the SEC-purified RIPK2 1-317-XIAP BIR2 154-240 complex, Titan Krios 300 keV, untilted and tilted data, 3.15 Å; conditions: both partners purified
# RIPK2^1−300 [7] = biological target: B7; assay: native MS; complex fractions reapplied on Superdex 200 10/300 increase in 250 mM ammonium acetate with 1 mM DTT; concentration range of 10 μM; conditions: both partners purified
binder,measurement,setting,value
B1,stoichiometry N,[1],2 molecules of RIPK2
B2,binding result,[2],binds
B3,binding result,[2],binds
B4,binding result,[2],binds
B5,binding result,RIPK2^1−300 [3],binds
same,Kd,RIPK2^1−300 [4],92.9 nM
B6,binding result,RIPK2^1−300 [3],binds
B7,stoichiometry N,[1],2 molecules of RIPK2
B8,stoichiometry N,RIPK2^1−317 [5],1 RIPK2 per XIAP BIR2 (printed as the ratio 2:2)
same,Kd,RIPK2^1−300 [3],85.6 ± 18.7 nM
same,stoichiometry N,RIPK2^1−317 [6],2 RIPK2 per XIAP BIR2 (printed as the ratio 2:1)
B9,stoichiometry N,RIPK2^1−317 [5],2 RIPK2 per XIAP BIR2 (printed as the ratio 2:1) and 1 RIPK2 per XIAP BIR2 (printed as the ratio 2:2)
B10,binding result,RIPK2^1−300 [3],binds
same,Kd,RIPK2^1−300 [4],142 nM
B11,stoichiometry N,RIPK2^1−300 [7],1 RIPK2 per XIAP BIR2 (printed as the ratio 2:2) and 2 RIPK2 per XIAP BIR2 (printed as the ratio 2:1)
same,Kd,RIPK2^1−300 [4],85.9 nM
B12,stoichiometry N,RIPK2^1−317 [5],1 RIPK2 per XIAP BIR2 (printed as the ratio 2:2)
